# Tests used:
# [1] = molecular target: ovine FcRn complex (ovine) (UniProt Q6QAT4); test: SPR (Biacore 8K+), pH 5.9, 25 C; FcRn captured by anti-His, IgG as analyte; steady state affinity
# [2] = molecular target: ovine FcRn complex (ovine) (UniProt Q6QAT4); test: SPR (Biacore 8K+), pH 5.9, 25 C; FcRn captured by anti-His, IgG as analyte; 1:1 kinetic model
# [3] = molecular target: porcine FcRn complex (porcine) (UniProt Q07717); test: SPR (Biacore 8K+), pH 5.9, 25 C; FcRn captured by anti-His, IgG as analyte; steady state affinity
# Chain of porcine FcRn complex (porcine) (main, as listed by the source, chain 1 of 2): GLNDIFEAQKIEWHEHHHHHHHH
# Chain of porcine FcRn complex (porcine) (Q07717 other isoform, or with tags, fused parts or gaps, chain 2 of 2): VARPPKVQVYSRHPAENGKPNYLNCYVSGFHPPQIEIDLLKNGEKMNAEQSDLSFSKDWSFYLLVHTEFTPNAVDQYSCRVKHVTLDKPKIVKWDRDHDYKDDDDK
# [4] = molecular target: bovine FcRn complex (bovine) (UniProt F6R592); test: SPR (Biacore 8K+), pH 5.9, 25 C; FcRn captured by anti-His, IgG as analyte; 1:1 kinetic model
# Chain of bovine FcRn complex (bovine) (chain, as listed by the source, chain 1 of 2): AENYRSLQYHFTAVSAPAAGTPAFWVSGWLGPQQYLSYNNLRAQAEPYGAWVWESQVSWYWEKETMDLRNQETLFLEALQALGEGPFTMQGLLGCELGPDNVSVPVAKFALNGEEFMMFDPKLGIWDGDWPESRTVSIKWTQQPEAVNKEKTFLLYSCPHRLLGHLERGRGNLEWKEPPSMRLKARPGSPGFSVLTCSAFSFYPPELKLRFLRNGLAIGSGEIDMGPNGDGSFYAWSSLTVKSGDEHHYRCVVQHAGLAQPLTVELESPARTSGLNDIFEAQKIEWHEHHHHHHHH
# Chain of bovine FcRn complex (bovine) (P01888 other isoform, or with tags, fused parts or gaps, chain 2 of 2): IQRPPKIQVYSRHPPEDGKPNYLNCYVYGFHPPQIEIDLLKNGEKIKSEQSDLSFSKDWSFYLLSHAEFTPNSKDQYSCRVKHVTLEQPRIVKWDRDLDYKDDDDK
# Chain of ovine FcRn complex (ovine) (Q6QAT4 other isoform, or with tags, fused parts or gaps, chain 2 of 2): as the sequence (P01888 other isoform, or with tags, fused parts or gaps, chain 2 of 2) above, with P4I, K6E, I7V, K82N, E87T, R90K counted along it
Binder,Fold increase over wild-type KD [2],Kd [2],further results
"Ovine wild-type (antibody, part only; not given: variable domains and light chain, IgG1, not shown: another chain or arm of the molecule) Fc: PELPGGPSVFIFPPKPKDTLTISGTPEVTCVVVDVGQDDPEVQFSWFVDNVEVRTARTKPREEQFNSTFRVVSALPIQHQDWTGGKEFKCKVHNEALPAPIVRTISRTKGQAREPQVYVLAPPQEELSKSTLSVTCLVTGFYPDYIAVEWQKNGQPESEDKYGTTTSQLDADGSYFLYSRLRVDKNSWQEGDTYACVVMHEALHNHYTQKSISKPPGK",–,–,Fold increase over wild-type KD [1]: 1 fold
"Ovine Q309V (antibody, part only; not given: variable domains and light chain, IgG1, not shown: another chain or arm of the molecule) Fc: PELPGGPSVFIFPPKPKDTLTISGTPEVTCVVVDVGQDDPEVQFSWFVDNVEVRTARTKPREEQFNSTFRVVSALPIVHQDWTGGKEFKCKVHNEALPAPIVRTISRTKGQAREPQVYVLAPPQEELSKSTLSVTCLVTGFYPDYIAVEWQKNGQPESEDKYGTTTSQLDADGSYFLYSRLRVDKNSWQEGDTYACVVMHEALHNHYTQKSISKPPGK",6.3 fold,79.3 nM,–
"Ovine M428Y (antibody, part only; not given: variable domains and light chain, IgG1, not shown: another chain or arm of the molecule) Fc: PELPGGPSVFIFPPKPKDTLTISGTPEVTCVVVDVGQDDPEVQFSWFVDNVEVRTARTKPREEQFNSTFRVVSALPIQHQDWTGGKEFKCKVHNEALPAPIVRTISRTKGQAREPQVYVLAPPQEELSKSTLSVTCLVTGFYPDYIAVEWQKNGQPESEDKYGTTTSQLDADGSYFLYSRLRVDKNSWQEGDTYACVVYHEALHNHYTQKSISKPPGK",3 fold,166 nM,–
"Ovine Q311V (antibody, part only; not given: variable domains and light chain, IgG1, not shown: another chain or arm of the molecule) Fc: PELPGGPSVFIFPPKPKDTLTISGTPEVTCVVVDVGQDDPEVQFSWFVDNVEVRTARTKPREEQFNSTFRVVSALPIQHVDWTGGKEFKCKVHNEALPAPIVRTISRTKGQAREPQVYVLAPPQEELSKSTLSVTCLVTGFYPDYIAVEWQKNGQPESEDKYGTTTSQLDADGSYFLYSRLRVDKNSWQEGDTYACVVMHEALHNHYTQKSISKPPGK",5.4 fold,92.7 nM,–
"Ovine N434Y (antibody, part only; not given: variable domains and light chain, IgG1, not shown: another chain or arm of the molecule) Fc: PELPGGPSVFIFPPKPKDTLTISGTPEVTCVVVDVGQDDPEVQFSWFVDNVEVRTARTKPREEQFNSTFRVVSALPIQHQDWTGGKEFKCKVHNEALPAPIVRTISRTKGQAREPQVYVLAPPQEELSKSTLSVTCLVTGFYPDYIAVEWQKNGQPESEDKYGTTTSQLDADGSYFLYSRLRVDKNSWQEGDTYACVVMHEALHYHYTQKSISKPPGK",81 fold,6.09 nM,–
"Ovine T252Y (antibody, part only; not given: variable domains and light chain, IgG1, not shown: another chain or arm of the molecule) Fc: PELPGGPSVFIFPPKPKDTLYISGTPEVTCVVVDVGQDDPEVQFSWFVDNVEVRTARTKPREEQFNSTFRVVSALPIQHQDWTGGKEFKCKVHNEALPAPIVRTISRTKGQAREPQVYVLAPPQEELSKSTLSVTCLVTGFYPDYIAVEWQKNGQPESEDKYGTTTSQLDADGSYFLYSRLRVDKNSWQEGDTYACVVMHEALHNHYTQKSISKPPGK",11 fold,43.1 nM,–
"Porcine wild-type (antibody, part only; not given: variable domains and light chain, IgG1a, not shown: another chain or arm of the molecule) Fc: GCEVAGPSVFIFPPKPKDTLMISQTPEVTCVVVDVSKEHAEVQFSWYVDGVEVHTAETRPKEEQFNSTYRVVSVLPIQHQDWLKGKEFKCKVNNVDLPAPITRTISKAIGQSREPQVYTLPPPAEELSRSKVTVTCLVIGFYPPDIHVEWKSNGQPEPEGNYRTTPPQQDVDGTFFLYSKLAVDKARWDHGETFECAVMHEALHNHYTQKSISKTQGK",–,–,Fold increase over wild-type KD [3]: 1 fold
"Bovine N434Y (antibody, part only; not given: variable domains and light chain, IgG1, not shown: another chain or arm of the molecule) Fc: PPELPGGPSVFIFPPKPKDTLTISGTPEVTCVVVDVGHDDPEVKFSWFVDNVEVNTATTKPREEQFNSTYRVVSALRIQHQDWTGGKEFKCKVHNEGLPAPIVRTISRTKGPAREPQVYVLAPPQEELSKSTVSLTCMVTSFYPDYIAVEWQRNGQPESEDKYGTTPPQLDADSSYFLYSKLRVDRNSWQEGDTYTCVVMHEALHYHYTQKSTSKSA",–,–,Fold increase over wild-type KD [4]: 42 fold; Kd [4]: 11.9 nM
"Bovine Y436H (antibody, part only; not given: variable domains and light chain, IgG1, not shown: another chain or arm of the molecule) Fc: PPELPGGPSVFIFPPKPKDTLTISGTPEVTCVVVDVGHDDPEVKFSWFVDNVEVNTATTKPREEQFNSTYRVVSALRIQHQDWTGGKEFKCKVHNEGLPAPIVRTISRTKGPAREPQVYVLAPPQEELSKSTVSLTCMVTSFYPDYIAVEWQRNGQPESEDKYGTTPPQLDADSSYFLYSKLRVDRNSWQEGDTYTCVVMHEALHNHHTQKSTSKSA",–,–,Fold increase over wild-type KD [4]: 2.3 fold; Kd [4]: 224 nM
